# Laboratory results from PMC5052711.
# B1: hTRPA1: N747/753Q (protein)
# parent chain: MKRSLRKMWRPGEKKEPQGVVYEDVPDDTEDFKESLKVVFEGSAYGLQNFNKQKKLKRCDDMDTFFLHYAAAEGQIELMEKITRDSSLEVLHEMDDYGNTPLHCAVEKNQIESVKFLLSRGANPNLRNFNMMAPLHIAVQGMNNEVMKVLLEHRTIDVNLEGENGNTAVIIACTTNNSEALQILLKKGAKPCKSNKWGCFPIHQAAFSGSKECMEIILRFGEEHGYSRQLHINFMNNGKATPLHLAVQNGDLEMIKMCLDNGAQIDPVEKGRCTAIHFAATQGATEIVKLMISSYSGSVDIVNTTDGCHETMLHRASLFDHHELADYLISVGADINKIDSEGRSPLILATASASWNIVNLLLSKGAQVDIKDNFGRNFLHLTVQQPYGLKNLRPEFMQMQQIKELVMDEDNDGCTPLHYACRQGGPGSVNNLLGFNVSIHSKSKDKKSPLHFAASYGRINTCQRLLQDISDTRLLNEGDLHGMTPLHLAAKNGHDKVVQLLLKKGALFLSDHNGWTALHHASMGGYTQTMKVILDTNLKCTDRLDEDGNTALHFAAREGHAKAVALLLSHNADIVLNKQQASFLHLALHNKRKEVVLTIIRSKRWDECLKIFSHNSPGNKCPITEMIEYLPECMKVLLDFCMLHSTEDKSCRDYYIEYNFKYLQCPLEFTKKTPTQDVIYEPLTALNAMVQNNRIELLNHPVCKEYLLMKWLAYGFRAHMMNLGSYCLGLIPMTILVVNIKPGMAFNSTGIINETSDHSEILDTTNSYLIKTCMILVFLSSIFGYCKEAGQIFQQKRNYFMDISNVLEWIIYTTGIIFVLPLFVEIPAHLQWQCGAIAVYFYWMNFLLYLQRFENCGIFIVMLEVILKTLLRSTVVFIFLLLAFGLSFYILLNLQDPFSSPLLSIIQTFSMMLGDINYRESFLEPYLRNELAHPVLSFAQLVSFTIFVPIVLMNLLIGLAVGDIAEVQKHASLKRIAMQVELHTSLEKKLPLWFLRKVDQKSTIVYPNKPRSGGMLFHIFCFLFCTGEIRQEIPNADKSLEMEILKQKYRLKDLTFLLEKQHELIKLIIQKMEIISETEDDDSHCSFQDRFKKEQMEQRNSRWNTVLRAVKAKTHHLEP
# B2: hTRPA1: N747Q (protein)
# parent chain: B1 parent chain
# B3: hTRPA1: N753Q (protein)
# parent chain: B1 parent chain
# Tests used:
# [1] = fluorometric membrane depolarization, 23°C vs 37°C; conditions: glycan lost; control: wild type (less sensitive at 23°C than at 37°C)
# [2] = whole-cell patch-clamp, maximum amplitude; conditions: glycan lost; control: wild type
# [3] = fluorometric membrane depolarization, FlexStation, 37°C; conditions: glycan lost; control: wild type
# [4] = whole-cell patch-clamp, 37°C; conditions: glycan lost; control: wild type
# [5] = anti-FLAG WB of cell lysates, normalized to total protein; conditions: glycan lost; control: wild type
# [6] = fluorometric membrane depolarization, maximal RFU; conditions: glycan lost; control: wild type
# [7] = ratio of WT-relative surface to WT-relative total expression; conditions: glycan lost; control: wild type
Protein,"other: temperature dependence of agonist sensitivity, EC50 [1]",other: channel current [2],"other: agonist sensitivity, EC50 [3]","other: agonist sensitivity, EC50 [4]","expression_or_secretion, fold_change [5]","other: maximal channel response, other: mean maximal RFU [6]","localisation_or_trafficking, other: surface/total ratio relative to WT [7]"
B1,"changes, 14.8 vs 13.5",no change,"decreases, 20.9 vs 9.5","decreases, 142.3 vs 35.0",decreases,"no change, 866 vs 1155",no change
B2,"changes, 18.2 vs 13.5",no change,–,"decreases, 141.0 vs 35.0",decreases,"no change, 947 vs 1155",increases
B3,"no change, 18.0 vs 13.5",no change,"no change, 10.5 vs 9.5","no change, 42.0 vs 35.0",decreases,"no change, 902 vs 1155",no change
